Paper PMC8642242

Biological target: SARS-CoV-1 (Sino 1-11) RBD, His-tagged (SARS-CoV-1)

WRAIR-2063 (human IgG1) (antibody)
IC50 of neutralization of SARS-CoV-1 (Sino 1-11) pseudovirus: 0.095 µg/mL
